To fix the notation:
B1: C-terminal 3× FLAG-tagged WT Tfb2 [Saccharomyces cerevisiae] / Ssl2 [S. cerevisiae (endogenous in yeast)] (parent complex)
chain 1: MSDYSLKHSVTQYLEEIPQQVQNRLYTSPATCLAIYRILPPLAKFFIMAMVFNENEVPLLDLDKWVNSNGKLQFQNAIKSMKSLHLLIPNKSSGTLMINLNPTFKISLRNALTGGEVQNSFGVVVEENVVSLDLLDEYSANKWETILHFMVGTPLAKIPSEKVLNLLKHSKLMEEVNSTGEFKITNEGFQFLLQEINSQLWTLLLQYLKMIETSKMDLVDVLHFIFMLGALEVGKAYKIDALSETQRIMLQDMRDYGLVFQKHSNDSIFYPTKLALMLTSDTKTIRSASNAMDSVLRQNREEPSVNEDGANGKSTTDITTSDDLNKAGLKNQDIPDGSLIVETNFKIYSYSNSPLQIAVLSLFVHLKARFVNMVLGQITRESIRRALTNGITADQIIAYLETHAHPQMRRLAEEKLEKKLELDPNCKEPLQVLPPTVVDQIRLWQLELDRVITYEGSLYSDFETSQEYNLLSKYAQDIGVLLWKDDKKKKFFISKEGNSQVLDFAKRKLKKKQ
chain 2: MTDVEGYQPKSKGKIFPDMGESFFSSDEDSPATDAEIDENYDDNRETSEGRGERDTGAMVTGLKKPRKKTKSSRHTAADSSMNQMDAKDKALLQDTNSDIPADFVPDSVSGMFRSHDFSYLRLRPDHASRPLWISPSDGRIILESFSPLAEQAQDFLVTIAEPISRPSHIHEYKITAYSLYAAVSVGLETDDIISVLDRLSKVPVAESIINFIKGATISYGKVKLVIKHNRYFVETTQADILQMLLNDSVIGPLRIDSDHQVQPPEDVLQQQLQQTAGKPATNVNPNDVEAVFSAVIGGDNEREEEDDDIDAVHSFEIANESVEVVKKRCQEIDYPVLEEYDFRNDHRNPDLDIDLKPSTQIRPYQEKSLSKMFGNGRARSGIIVLPCGAGKTLVGITAACTIKKSVIVLCTSSVSVMQWRQQFLQWCTLQPENCAVFTSDNKEMFQTESGLVVSTYSMVANTRNRSHDSQKVMDFLTGREWGFIILDEVHVVPAAMFRRVVSTIAAHAKLGLTATLVREDDKIGDLNFLIGPKLYEANWMELSQKGHIANVQCAEVWCPMTAEFYQEYLRETARKRMLLYIMNPTKFQACQFLIQYHERRGDKIIVFSDNVYALQEYALKMGKPFIYGSTPQQERMNILQNFQYNDQINTIFLSKVGDTSIDLPEATCLIQISSHYGSRRQEAQRLGRILRAKRRNDEGFNAFFYSLVSKDTQEMYYSTKRQAFLVDQGYAFKVITHLHGMENIPNLAYASPRERRELLQEVLLKNEEAAGIEVGDDADNSVGRGSNGHKRFKSKAVRGEGSLSGLAGGEDMAYMEYSTNKNKELKEHHPLIRKMYYKNLKK
B2: N-terminal 3×-FLAG-tagged p52 (WT) [human] / p34 [human (endogenous in HEK293T)] (parent complex)
chain 1: MESTPSRGLNRVHLQCRNLQEFLGGLSPGVLDRLYGHPATCLAVFRELPSLAKNWVMRMLFLEQPLPQAAVALWVKKEFSKAQEESTGLLSGLRIWHTQLLPGGLQGLILNPIFRQNLRIALLGGGKAWSDDTSQLGPDKHARDVPSLDKYAEERWEVVLHFMVGSPSAAVSQDLAQLLSQAGLMKSTEPGEPPCITSAGFQFLLLDTPAQLWYFMLQYLQTAQSRGMDLVEILSFLFQLSFSTLGKDYSVEGMSDSLLNFLQHLREFGLVFQRKRKSRRYYPTRLAINLSSGVSGAGGTVHQPGFIVVETNYRLYAYTESELQIALIALFSEMLYRFPNMVVAQVTRESVQQAIASGITAQQIIHFLRTRAHPVMLKQTPVLPPTITDQIRLWELERDRLRFTEGVLYNQFLSQVDFELLLAHARELGVLVFENSAKRLMVVTPAGHSDVKRFWKRQKHSS
chain 2: MVSDEDELNLLVIVVDANPIWWGKQALKESQFTLSKCIDAVMVLGNSHLFMNRSNKLAVIASHIQESRFLYPGKNGRLGDFFGDPGNPPEFNPSGSKDGKYELLTSANEVIVEEIKDLMTKSDIKGQHTETLLAGSLAKALCYIHRMNKEVKDNQEMKSRILVIKAAEDSALQYMNFMNVIFAAQKQNILIDACVLDSDSGLLQQACDITGGLYLKVPQMPSLLQYLLWVFLPDQDQRSQLILPPPVHVDYRAACFCHRNLIEIGYVCSVCLSIFCNFSPICTTCETAFKISLPPVLKAKKKKLKVSA
B3: N-terminal 3×-FLAG-tagged p52 (WT) [human] / XPB [human (endogenous in HEK293T)] (parent complex)
chain 1: B2 chain 1
chain 2: MGKRDRADRDKKKSRKRHYEDEEDDEEDAPGNDPQEAVPSAAGKQVDESGTKVDEYGAKDYRLQMPLKDDHTSRPLWVAPDGHIFLEAFSPVYKYAQDFLVAIAEPVCRPTHVHEYKLTAYSLYAAVSVGLQTSDITEYLRKLSKTGVPDGIMQFIKLCTVSYGKVKLVLKHNRYFVESCHPDVIQHLLQDPVIRECRLRNSEGEATELITETFTSKSAISKTAESSGGPSTSRVTDPQGKSDIPMDLFDFYEQMDKDEEEEEETQTVSFEVKQEMIEELQKRCIHLEYPLLAEYDFRNDSVNPDINIDLKPTAVLRPYQEKSLRKMFGNGRARSGVIVLPCGAGKSLVGVTAACTVRKRCLVLGNSAVSVEQWKAQFKMWSTIDDSQICRFTSDAKDKPIGCSVAISTYSMLGHTTKRSWEAERVMEWLKTQEWGLMILDEVHTIPAKMFRRVLTIVQAHCKLGLTATLVREDDKIVDLNFLIGPKLYEANWMELQNNGYIAKVQCAEVWCPMSPEFYREYVAIKTKKRILLYTMNPNKFRACQFLIKFHERRNDKIIVFADNVFALKEYAIRLNKPYIYGPTSQGERMQILQNFKHNPKINTIFISKVGDTSFDLPEANVLIQISSHGGSRRQEAQRLGRVLRAKKGMVAEEYNAFFYSLVSQDTQEMAYSTKRQRFLVDQGYSFKVITKLAGMEEEDLAFSTKEEQQQLLQKVLAATDLDAEEEVVAGEFGSRSSQASRRFGTMSSMSGADDTVYMEYHSSRSKAPSKHVHPLFKRFRK
B4: N-terminal 3×-FLAG-tagged p52 (WT) [human] / p8 [human (endogenous in HEK293T)] (parent complex)
chain 1: B2 chain 1
chain 2: MVNVLKGVLIECDPAMKQFLLYLDESNALGKKFIIQDIDDTHVFVIAELVNVLQERVGELMDQNAFSLTQK

Data on 29 variants can be found in publication PMC9557730 (2022).

The first assay covers variants of B1. The assay can be described thus: FLAG IP and Western blot; whole-cell extracts; FLAG-tagged Tfb2 variants coexpressed with endogenous Tfb2; two biological replicates; read off a plot.
On to chain 1 E447K, for which the response is approximately 0.5 Western Signal/Tfb2-FLAG.
Take chain 1 F370A: the response was approximately 0.085 Western Signal/Tfb2-FLAG.
Same read-out and setting: under chain 1 L360A, chain 1 L362A, chain 1 F363A stands approximately 0.17 Western Signal/Tfb2-FLAG.
Still for that read-out and setting: under chain 1 D439A, chain 1 E447A, chain 1 R450A stands approximately 0.58 Western Signal/Tfb2-FLAG.
On the same count and under the same terms, under chain 1 Q395A, chain 1 I396A, chain 1 I397A stands approximately 0.35 Western Signal/Tfb2-FLAG; under chain 1 R369A, chain 1 F370A, approximately 0.07 Western Signal/Tfb2-FLAG; under chain 1 G390A, chain 1 I391A, chain 1 T392A, approximately 0.2 Western Signal/Tfb2-FLAG.
As to chain 1 E342F, the response is approximately 0.085 Western Signal/Tfb2-FLAG.
With chain 1 E342R, chain 1 K346E, the response was approximately 0.11 Western Signal/Tfb2-FLAG.
The same measure, in the same setting: under chain 1 I378A, chain 1 T379A, chain 1 R380A stands approximately 0.21 Western Signal/Tfb2-FLAG.
The same measure, in the same setting: under chain 1 Y399A, chain 1 L400A stands approximately 0.28 Western Signal/Tfb2-FLAG.
Still for that read-out and setting: under chain 1 L339A, chain 1 I340A, chain 1 V341A stands approximately 0.11 Western Signal/Tfb2-FLAG.
Consider chain 1 I378A, chain 1 T379A, for which the response is approximately 0.29 Western Signal/Tfb2-FLAG.
Regarding chain 1 I347A, chain 1 Y348A, the response is approximately 0.23 Western Signal/Tfb2-FLAG.
Same read-out and setting: in the case of chain 1 Y348A, chain 1 Y350A it was approximately 0.19 Western Signal/Tfb2-FLAG; in that of chain 1 I396A, chain 1 I397A, approximately 0.38 Western Signal/Tfb2-FLAG; in that of chain 1 I347A, chain 1 Y348A, chain 1 Y350A, approximately 0.14 Western Signal/Tfb2-FLAG.

In another assay the parent is B2. The assay can be described thus: FLAG-IP LC–MS (iBAQ); HEK293T nuclear extracts; n = 3, biological replicates; read off a plot.
On to chain 1 Y316A, chain 1 Y318A, for which the response is approximately 0.67 Normalized Log2 iBAQ.
chain 1 E310A, chain 1 R314A: the response is approximately 0.67 Normalized Log2 iBAQ.
For the variant chain 1 R337A, chain 1 F338A, the response was approximately 0.73 Normalized Log2 iBAQ.
Still for that read-out and setting: under chain 1 E310F stands approximately 0.64 Normalized Log2 iBAQ.

The variants in another assay derive from B3. In words: FLAG-IP–Western; HEK293T nuclear extracts; n = 3, biological replicates; read off a plot.
On to chain 1 R337A, chain 1 F338A, for which the response is approximately 0.03 Normalized Western Signal.
For chain 1 E310F, the response was approximately 0.01 Normalized Western Signal.
Same read-out and setting: in the case of chain 1 Y316A, chain 1 Y318A it was approximately 0.02 Normalized Western Signal; in that of chain 1 E310A, chain 1 R314A, approximately 0.13 Normalized Western Signal.

Variants of B3 are the subject of another assay. The assay can be described thus: FLAG-IP LC–MS (iBAQ); HEK293T nuclear extracts; n = 3, biological replicates; read off a plot.
As for chain 1 R337A, chain 1 F338A, the response is approximately 0.67 Normalized Log2 iBAQ.
As to chain 1 E310F, the response is approximately 0.57 Normalized Log2 iBAQ.
As to chain 1 Y316A, chain 1 Y318A, the response is approximately 0.63 Normalized Log2 iBAQ.
Still for that read-out and setting: in the case of chain 1 E310A, chain 1 R314A it was approximately 0.78 Normalized Log2 iBAQ.

The variants in another assay derive from B4. The description is as above.
Take chain 1 Y316A, chain 1 Y318A: the response is approximately 0.83 Normalized Log2 iBAQ.
As to chain 1 E310F, the response was approximately 0.86 Normalized Log2 iBAQ.
On the same count and under the same terms, in the case of chain 1 E310A, chain 1 R314A it was approximately 0.83 Normalized Log2 iBAQ.
With chain 1 R337A, chain 1 F338A, the response was approximately 0.84 Normalized Log2 iBAQ.
